Experiment: soluble on expression in E. coli; label from the status in PepcDB or PDB records

| Sequence | soluble on expression in E. coli |
| --- | --- |
| MTRPVTLSEPHFSQHTLNKYASLMAQGNGYLGLRASHEEDYTRQTRGMYLAGLYHRAGKGEINELVNLPDILGMEIAINGEVFSLSREAWQRELDFASGELRRSVVWRTSNGAGYTIASRRFVSADQLPLIALEITIMPLDADASVLISTGIDATQTNHGRQHLDETQVRVFGQHLMQGIYTTQDGRSDVAISCCCQVSGDVQQCYTAKERRLLQHTSTQLHAGETVTLQKLVWIDWRDDRQAALDEWGSVSLRQLEMCAQQSYDQHLAASTENWRQWWQKRRITVNGGDAHDQQALDYALYHLRIMTPAHGERSSIAAKGLTGEGYKGHVFWDTEVFLLPFHLFSDPTVARSLLRYRWHNLPGAQEKARRNGWQGALFPWESARSGEEETPEFAAINIRTGLRQKVASAQAEHHLVADIAWAVIQYWQTTGDESFIAHEGMALLLETAKFWISRAVRVNDRLEIHDVIGPDEYTEHVNNNAFTSYMVYYNVQQALSIARQFGCSDDAFIHRAEMFLKELRLPEIQPDGVLPQDDSFMTKPAINLAKYKAAAGKQTILLDYSRAEVNEMQILKQADVVMLNYMLPEQFSSASCLANLQFYEPRTIHDSSLSKAIHGIVAARCGLLTQSYQFWREGTEIDLGADPHSCDDGIHAAATGAIWLGAIQGFAGVSVRDGELHLNPALLEQWQQLSFPLFWQGCELQVTLDAQRIAIRTSAPVSLRLDGQLISVAEESVFCLGDFILPFNGTATTHQEDE | not soluble |
| MWPAIIQQLSEQLGKDFHLVEKEKVHGGDINECFMVSDGIDRYFVKTNQREYLTKFTAEVENLRVMRESNTVQVPEYILHGTSKTHAYLVLNYLATKPLDDAERSYEFGVQLANLHRWGEQKEFGFDIDNYIGATVQPNPWHKKWALFFAEQRIGWQLQLMQEKGVNLTNINEFVEMVKTRLANHSPRPSLLHGDLWFGNVANIVNGPLCFDPACYWGDRECDIALAEWFGGFQPEFFQGYESVWPLDWGYEERKDIYNLYHVLNHYNQFGGHYLDEAQKLIEKILSYLEHHHHHH | not soluble |
| MEKVKVKNPIVELDGDEMARVMWKMIKEKLILPYLDIQLVYFDLGIKKRDETDDQITIEAAKAIKKYGVGVKCATITPDAERVKEYNLKKAWKSPNATIRAYLDGTVFRKPIMVKNVPPLVKRWKKPIIIGRHAYGDIYNAVEAKVEGPAEVELVVRNKENKTLLVHKFEGNGVVMAMHNLEKSIRSFAQSCINYAISEKVDIWFATKDTISKVYHAYFKDIFQEEVDKRKEELEKAGVNYRYMLIDDAAAQILRSEGGMLWACMNYEGDIMSDMIASGFGSLGLMTSVLVSPDGVYEFEAAHGTVRRHYYRYLKGEKTSTNPTASIFAWTGAIRKRGELDGTPEVCEFADKLEKAVINTIESGVITKDLQPFTEPPIDKYVTLEEFIDEVKKNLEKLL | soluble |
| MDYFDRCYIINLPERRDRRREMEKELERAGMPPMPGRVEFFPAIRPESAGPFPSIGAHGCFLSHLGILRAAKAQGLRNVLILEDDLTFAAQFPEVEEKLVGELRETPWDFAFFGHVLEFPEVPPDRAHLEPYAGPIVTAHFYAVNGAVIDRLLGFLDALLQRPPGHPDGGPMHVDGAYSTFRQQNPDVVTLVAVPSQGWQRSSRSDIAPNRWYDRWPLVRSLVALARRGKTWLRGNRRHAAALEHHHHHH | not soluble |
| KEFFLAKHAEQKKRHHKYNDTEYNLEPNVKGSPGGLRDIQTILWVARRQYGTLNLHALAGEGFLLGSENALLASSQEFLWKVRYALHMLAGRSEDRLLFDYQVRIAGLLGYEDNDAKLAIERFMQKYYRVVMSIAELSDLIIQHFEEVILSDDDGTPQPINSRFQLHDGYIEATNPNVFRRTPFAMLEIFVLMAQHPEIKGVRADTIRLL | not soluble |
| MNKPVAIFLMGPTASGKTDLAIALRKQLPVEVISVDSALIYKEMDIGTAKPTAAELAQAPHRLIDILDPKESYSAMHFHADALHAMADITASGRIPLLVGGTMLYYKALLEGLSPLPSANEHIRTEIEAHANQYGWASLHQQLTQIDPLAASRINANDSQRINRALEVFYLTGKNLTELTAQQGECLPYQVLQFAIAPQERAVLHQRIEQRFHKMMELGFLTEVEKLYARGDLHPDLPAIRCVGYRQMWQHLAGEISLDEAIYKGICATRQLAKRQLTWLRGWRSEITWLDSLDPTSSQEKMIQNLEQNFIKLLEHHHHHH | soluble |
| SAGVRGLRLVERYTQDTANIINNVIKLDKQKVEAFSIQYKDPKNFRVQVKINAKGNYKKDTVKTYLSQVGLSDGDLNDTGTLEAEIIYTYMPPAASFFSASKFDKLTRAINFNTNLRIQIIGKDSVMTKLLQQSSFVKQLADQKFQDQSINLLPYVLYSI | not soluble |
| GPGSMQSASSRVPRKPAAASNLGKPSSSGRFTKPNRPQPTSSFSKTAQPDMTGRYGTSTALVASTAASHFTAGARGQSTPFVGLADRTGQEGSVFGLRAPQNDATGAAAHTKTRQAARTKVVDDASTPVVVVGPERDSVPFRLCCEALAEGCVQTYMHLFELAHRDPVCVDTLSRKFFNVPDDRLAWVQQQLSAVEVLRRQSEFEQVFTHCEQLANYFEKEGDYAEAAWYHEMVLHYMMESLDRTLEQRARHVYATFQERQGHLEEAAALYDAMYRLAVALRDEATLQDASCCLVRVHQALGETLKFSDPAAAARHYATAAEAAVRSKNVVDEGSAYSALGDVSEARGDLPLALKYQRSCRAVAQQNDLKPQECRATLRVADLEERLGLKLEASTTLHEALQLAKELGAPRQLCIATMQLGEAYRSRNQEGEALQCFDESFAAAVEAGDQELIDTVRIAMGFARGDYYLTHAYGGKGYLHLVYTDIRAQLAWMSGGTL | not soluble |
| GPGSMDESNRVPTGEAPSDEPPLKVRRHEGGHGELRETSSGDTNPQGATLFIRCTSIHGRGELLNGFISEHREALGVAKWYNVAGDESDGRCVPTLRTDAPFECVYVRSSRKPYFLLEFNEKGDVAKKFVEKLVGLRNTLYKGSPVFVEVAKGGLTVATERLKLEKRDAARRSATAVPLSFSSDKPTGPTAFVPRAVRKR | soluble |
| SDSFWEPGNYKRTTKRIEDGYKLCNDLQQLIQERADIEKGYAKSLRTWSKKWGELIEKGPEYGTTEAAWKGVLTESERISDVHMKIKDNLCNDVNSQIKTWQKENYHHTLMQIKERKDLEDLFKKAQKPWAKLLAKVEKAKADYHSACKTERSATNQERNANADSSLSPDQVKKMHDRVQKTKDQVQKCREKYEQAIAEITKYNSVYIEDMTSVFEKCQTFEKTRLQFFKEILFNVHSCLDLTKVQSLPQIYEEFSHTINNADQQKDLKWWSNNHGINMAMNWPSFVEYT | soluble |
| MLPPYNYMDNGTLKGISIDLLEAITEKMGKKVTREEIHLVSWTEGYQAALTRNNTVLFVTARTPEREQSFKWVGPIYSDKYVLFAKRDPGVTIDGPEDLKEYRIGVISDDVAAQQLLNIGVNQSQLEHHHHHH | not soluble |
| MPFTPSEIKNKEFTRVKNGLEPTEVANYLEQLSNEIERLKEDKKQLEKVIEDRDSNIKSYKDVHQSVSDALIQAQKVGEETKQAATKEAEAVLSKAQVQADSIVNDAIEKARRLAFQTEDMKRQSKVFRSRFRMLVEAQLDLLKSEDWDYLLNYDLDAEQVTLEDIHHLHDNDLTPEERAMKQKQNQEISANQPSTSSSESVSQSNANNESSQSTSNN | soluble |
| MGSDKIHHHHHHMIDLRSDTVTKPTEEMRKAMAQAEVGDDVYGEDPTINELERLAAETFGKEAALFVPSGTMGNQVSIMAHTQRGDEVILEADSHIFWYEVGAMAVLSGVMPHPVPGKNGAMDPDDVRKAIRPRNIHFPRTSLIAIENTHNRSGGRVVPLENIKEICTIAKEHGINVHIDGARIFNASIASGVPVKEYAGYADSVMFCLSKGLCAPVGSVVVGDRDFIERARKARKMLGGGMRQAGVLAAAGIIALTKMVDRLKEDHENARFLALKLKEIGYSVNPEDVKTNMVILRTDNLKVNAHGFIEALRNSGVLANAVSDTEIRLVTHKDVSRNDIEEALNIFEKLFRKFS | soluble |
| MRVAVDAMGGDNAPAVEVEGAVVAAREFGIPITLVGDTEKLRLELAKHNVQGLDIAIHHASEVVGMHDAASDAVRRKKDSSIRVAFDLVKSGEAEAVVSAGNSGATMAAGMFVLKRLKGIDRPAIAQIFPTLRGKTLVLDVGGNVDCKPIHLVQFAIMGEVYARHVIGVEQPRIGLLSNGEEDSKGNELTRETNAILKNISFDYEGYVEGRDIFNGMVDVVVCDGFVGNVVLKLSEGLAETVGKMLREEIASSLLSKLGYLFVRKAFKNFKKKVDYAEYGGAPLIGINGVAMICHGGSNVKAIKNAIHFAHEYVRKGVNQRLAEKMETEFTAYMQQFDAVKEAVAG | not soluble |

Source: the DeepSol protein solubility set
